Biological target: T1, prefusion-stabilized RSV F (DS-Cav1), subtype B (strain B9320), with C-terminal His tag and Strep-tag II … (human respiratory syncytial virus B, …, UniProt Q6V2E7, stabilised)
T1 construct: copies: 3 + 3
Assay: SPR
Settings: both partners purified

B1: RSD5-WT Fab (parental RSD5) (Fab, V domains shown)
VH: QVQLVESGGGVVQPGRPLRLSCAASGFAFNNFALHWVRQAPGKGPEWLAAVSYDGTSPYYAESVRARFSISRDNSKKTFYLQLDSLRPEDTAVYYCARGLGSGSYSWIGYFYAMDVWGRGTTVTVSS
VL: QSALTQPASVSGSPGQSITISCTGTSSDVGGYVYVAWYQQHPGTAPKLIIYDVSDRPSGVSNRFSGSKSGNTASLTISGLQAEDDADYYCISYTDRNTVVFGGGTKLTVL
- binding result: binds

From paper PMC6658013 (PLoS Pathogens, 2019)
